According to patent US20250313638A1 (KISOJI BIOTECHNOLOGY, published 2025):
Read-outs that look alike come from different tables or passages of the source. Values belong to the binder of their own block, whether it stands above or below them.

What was measured:
[1] = molecular target: T1, human CD47 on cells (HEK293T cells, human blood cells, primary human T cells) (human, UniProt Q08722 19-323); assay: flow cytometry on primary human T cells
T1 construct: Endogenous CD47 of human cells; For blood cells and T cells it is inferred from the specificity of the anti-CD47 module

[2] = molecular target: T2, human PD-1 on CHO-PD1 cells (human, UniProt Q15116 25-288); assay: flow cytometry on CHO-PD1 cells, APC anti-human-Fc secondary antibody
T2 construct: also called CHO-PD-1 cell line
T2 sequence (Q15116 25-288 limits assumed): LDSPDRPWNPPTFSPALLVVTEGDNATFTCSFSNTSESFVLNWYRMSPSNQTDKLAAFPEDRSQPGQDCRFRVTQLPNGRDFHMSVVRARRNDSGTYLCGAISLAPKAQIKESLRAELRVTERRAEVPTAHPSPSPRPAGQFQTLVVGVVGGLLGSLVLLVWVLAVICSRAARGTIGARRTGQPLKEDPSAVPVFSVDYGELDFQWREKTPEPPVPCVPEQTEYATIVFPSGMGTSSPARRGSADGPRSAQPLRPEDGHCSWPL

[3] = molecular target: T3, recombinant human PD-1 protein (human, UniProt Q15116 25-167); assay: ELISA: recombinant human PD-1 coated on the plate, anti-human-Fc-HRP, chemiluminescence
T3 construct: Bought (Cedarlane Cat. No. HPLC-10377-H08H-100); also called human recombinant PD1 protein; PD-1 recombinant protein
T3 sequence (Q15116 25-167 limits assumed): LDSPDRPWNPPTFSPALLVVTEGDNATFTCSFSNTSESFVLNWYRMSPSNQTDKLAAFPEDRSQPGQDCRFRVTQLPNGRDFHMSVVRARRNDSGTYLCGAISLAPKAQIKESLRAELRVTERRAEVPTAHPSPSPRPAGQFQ
Protocol: (§1) Briefly, recombinant proteins were coated on 96-well plates. Plates were covered and left at 4° C. overnight. The next day, plates were washed once with PBS and blocked with blocking buffer for 1 hour at room temperature. Binding agents were tested at the indicated concentration (357 nM starting concentration, followed by 12 one in four serial dilutions for FIG. 9B lower panel), diluted in the blocking buffer, and incubated for 1 hour at 37° C. After incubation, plates were washed three times with washing buffer. Plates were incubated with anti-human-Fc-HRP (Sigma-Aldrich, Cat. No. AP113P) diluted at 1:5000 for 1 hour at room temperature, then washed three times with PBS-T washing buffer. The signal was developed with SuperSignal™ ELISA Pico Chemiluminescent Substrate (Thermofisher, Cat. No. 37069). The plates were read on a SpectraMax™ i3x Multi-Mode Microplate Reader (Molecular Devices).

[4] = molecular target: T4, recombinant cynomolgus monkey PD-1 protein (cynomolgus monkey, UniProt B0LAJ3 25-170); assay: ELISA: recombinant cynomolgus PD-1 coated on the plate, anti-human-Fc-HRP, chemiluminescence
T4 construct: also called cynomolgus monkey recombinant PD1 protein
T4 sequence (B0LAJ3 entry or part of it limits assumed): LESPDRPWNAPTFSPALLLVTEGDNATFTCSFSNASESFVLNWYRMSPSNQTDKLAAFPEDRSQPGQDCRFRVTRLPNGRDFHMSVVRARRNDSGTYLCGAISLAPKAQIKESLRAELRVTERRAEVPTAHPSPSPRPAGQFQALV
Protocol: as §1

[5] = molecular target: T5, recombinant human CD47 protein (human, UniProt Q08722 19-139); assay: ELISA: recombinant human CD47 coated on the plate, chemiluminescence
T5 construct: Bought (Cedarlane Cat. No. 12283-H08H-200); also called human recombinant CD47 protein; CD47 recombinant protein

[6] = molecular target: T6, recombinant cynomolgus CD47 protein (cynomolgus monkey, UniProt A0A5F8AK49 19-139 (rhesus entry)); assay: ELISA: recombinant cynomolgus CD47 coated on the plate, chemiluminescence
T6 construct: also called cynomolgus monkey CD47 recombinant protein

[7] = molecular target: T3, recombinant human PD-1 protein; assay: ELISA: recombinant human PD-1 coated on the plate, anti-human-Fc-HRP, chemiluminescence; remark: listed apart in the source
Protocol: as §1

[8] = molecular target: PD-1 on the Jurkat effector cells of the PD-1/PD-L1 blockade bioassay (UniProt Q15116 25-288, limits assumed); assay: cell-based or functional assay
PD-1 on the Jurkat effector cells of the PD-1/PD-L1 blockade bioassay, sequence (Q15116 25-288 limits assumed): as the sequence (Q15116 25-288 limits assumed) above

BSA = molecular target: T7, BSA; assay: ELISA: BSA coated on the plate, anti-human-Fc-HRP, chemiluminescence
T7 construct: also called control protein (BSA)
T7 sequence (chain, as listed by the source limits assumed): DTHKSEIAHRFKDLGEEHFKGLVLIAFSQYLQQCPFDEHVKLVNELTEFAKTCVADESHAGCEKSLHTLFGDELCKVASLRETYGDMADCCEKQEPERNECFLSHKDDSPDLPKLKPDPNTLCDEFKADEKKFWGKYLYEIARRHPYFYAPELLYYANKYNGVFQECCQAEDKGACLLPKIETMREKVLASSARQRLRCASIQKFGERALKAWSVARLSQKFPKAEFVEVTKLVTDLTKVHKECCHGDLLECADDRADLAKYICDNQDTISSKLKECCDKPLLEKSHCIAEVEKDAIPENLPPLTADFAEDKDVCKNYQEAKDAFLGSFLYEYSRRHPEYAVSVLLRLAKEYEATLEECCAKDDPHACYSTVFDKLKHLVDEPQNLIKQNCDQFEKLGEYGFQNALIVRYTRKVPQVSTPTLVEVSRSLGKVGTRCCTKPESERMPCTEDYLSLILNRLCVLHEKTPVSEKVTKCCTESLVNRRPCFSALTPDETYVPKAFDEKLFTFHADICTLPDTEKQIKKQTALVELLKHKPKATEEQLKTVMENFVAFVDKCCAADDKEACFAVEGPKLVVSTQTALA
Protocol: as §1

[9] = molecular target: T8, recombinant rat PD-1 protein (rat, UniProt D3ZIN8 25-169); assay: ELISA: recombinant rat PD-1 coated on the plate, anti-human-Fc-HRP, chemiluminescence
T8 construct: also called rat recombinant PD1 protein
T8 sequence: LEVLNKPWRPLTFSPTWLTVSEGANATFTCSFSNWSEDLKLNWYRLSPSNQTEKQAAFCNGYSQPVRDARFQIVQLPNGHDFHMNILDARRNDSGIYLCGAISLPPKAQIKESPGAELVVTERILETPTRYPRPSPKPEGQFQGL
Protocol: as §1

[10] = molecular target: T3, recombinant human PD-1 protein; assay: ELISA: recombinant human PD-1 coated on the plate, anti-human-Fc-HRP, chemiluminescence; remark: listed apart in the source
Protocol: as §1

B3: monoclonal anti-CD47 antibody clone B6H12 (antibody)
chain: EVQLVESGGDLVKPGGSLKLSCAASGFTFSGYGMSWVRQTPDKRLEWVATITSGGTYTYYPDSVKGRFTISRDNAKNTLYLQIDSLKSEDTAIYFCARSLAGNAMDYWGQGTSVTVSSGGGGSGGGGSGGGGSDIVMTQSPATLSVTPGDRVSLSCRASQTISDYLHWYQQKSHESPRLLIKFASQSISGIPSRFSGSGSGSDFTLSINSVEPEDVGVYYCQNGHGFPRTFGGGTKLEIK
EC50 (read off the curve) [5]: ~0.5 nM
EC50 (read off the curve) [6]: ~0.1 nM

B4: KC067 (Fc fusion)
chain: QVQLVESGGGSVQAGGSLRLSCAASGSTDSIEYMTWFRQAPGKAREGVAALYTHTGNTYYTDSVKGRFTISQDKAKNMAYLRMDSVKSEDTAIYTCGATRKYVPVRFALDQSSYDYWGQGTQVTVSSEPKSCDKTHTCPPCPAPELLGGPSVFLFPPKPKDTLMISRTPEVTCVVVDVSHEDPEVKFNWYVDGVEVHNAKTKPREEQYNSTYRVVSVLTVLHQDWLNGKEYKCKVSNKALPAPIEKTISKAKGQPREPQVYTLPPSREQMTKNQVSLTCLVKGFYPSDIAVEWESNGQPENNYKTTPPVLNSDGSFFLYSKLTVDKSRWQQGNVFSCSVMHEALHNHYTQESLSLSPGKAPAPAPAPAPKAQVQLQESGGGLVQPGGSLRLSCAASGFTFSNYGMSWVRQAPGEGLEWVSSIDSTGGTTRYADSVKGRFTISRDNAKNALYLQMNSLKPEDTAVYYCAKDFLSWMPRGQGTQVTVSSGGGGSGGGGSGGGGSQVQLVESGGGSVQAGGSLRLSCAASGSTDSIEYMTWFRQAPGKAREGVAALYTHTGNTYYTDSVKGRFTISQDKAKNMAYLRMDSVKSEDTAIYTCGATRKYVPVRFALDQSSYDYWGQGTQVTVSS
notes: the ranges are mine
EC50 (read off the curve) [7]: ~0.5 nM

B5: KC036 (Fc fusion)
chain: QVQLVESGGGSVQAGGSLRLSCAASGSTDSIEYMTWFRQAPGKAREGVAALYTHTGNTYYTDSVKGRFTISQDKAKNMAYLRMDSVKSEDTAIYTCGATRKYVPVRFALDQSSYDYWGQGTQVTVSSEPKSCDKTHTCPPCPAPELLGGPSVFLFPPKPKDTLMISRTPEVTCVVVDVSHEDPEVKFNWYVDGVEVHNAKTKPREEQYNSTYRVVSVLTVLHQDWLNGKEYKCKVSNKALPAPIEKTISKAKGQPREPQVYTLPPSREQMTKNQVSLTCLVKGFYPSDIAVEWESNGQPENNYKTTPPVLNSDGSFFLYSKLTVDKSRWQQGNVFSCSVMHEALHNHYTQESLSLSPGKAPAPAPAPAPKAQVQLQESGGGWVQPGGSLRLSCVASGFTFSRSSMSWHRQAPGKERDLVAIISSSGIITHYSDSVKGRFTISRDNAKDTVYLQMNSLKPEDTAVYVCNAVLDDDSGDYWGQGTQVTVSSGGGGSGGGGSGGGGSQVQLVESGGGSVQAGGSLRLSCAASGSTDSIEYMTWFRQAPGKAREGVAALYTHTGNTYYTDSVKGRFTISQDKAKNMAYLRMDSVKSEDTAIYTCGATRKYVPVRFALDQSSYDYWGQGTQVTVSS
notes: May comprise a His-tag or not; also called (HEWL)
EC50 (read off the curve), PD-1/PD-L1 blockade NFAT-luciferase reporter [8]: ~2 nM
binding result (BSA): no binding (tested: about 700 nM)
EC50 (read off the curve) [9]: ~0.1 nM
EC50 (read off the curve) [3]: ~0.1 nM
EC50 (read off the curve) [4]: ~0.1 nM
EC50 (read off the curve) [10]: ~0.2 nM
EC50 (read off the curve) [7]: ~0.2 nM

Continued, values first:

binding result [1]: no binding (tested: 350 nM)
binding result [2]: no binding
binding result [3]: no binding (tested: about 700 nM)
binding result [4]: no binding (tested: about 700 nM)
B1: KC035 (Fc fusion)
chain: QVQLVESGGGSVQAGGSLRLSCAASGSTDSIEYMTWFRQAPGKAREGVAALYTHTGNTYYTDSVKGRFTISQDKAKNMAYLRMDSVKSEDTAIYTCGATRKYVPVRFALDQSSYDYWGQGTQVTVSSEPKSCDKTHTCPPCPAPELLGGPSVFLFPPKPKDTLMISRTPEVTCVVVDVSHEDPEVKFNWYVDGVEVHNAKTKPREEQYNSTYRVVSVLTVLHQDWLNGKEYKCKVSNKALPAPIEKTISKAKGQPREPQVYTLPPSREQMTKNQVSLTCLVKGFYPSDIAVEWESNGQPENNYKTTPPVLNSDGSFFLYSKLTVDKSRWQQGNVFSCSVMHEALHNHYTQESLSLSPGKAPAPAPAPAPKAQVQLVESGGGSVQAGGSLRLSCAASGSTDSIEYMTWFRQAPGKAREGVAALYTHTGNTYYTDSVKGRFTISQDKAKNMAYLRMDSVKSEDTAIYTCGATRKYVPVRFALDQSSYDYWGQGTQVTVSSGGGGSGGGGSGGGGSQVQLVESGGGSVQAGGSLRLSCAASGSTDSIEYMTWFRQAPGKAREGVAALYTHTGNTYYTDSVKGRFTISQDKAKNMAYLRMDSVKSEDTAIYTCGATRKYVPVRFALDQSSYDYWGQGTQVTVSS
notes: Three anti-HEWL VHHs on an Fc; May comprise a His-tag or not; also called negative control

binding result [1]: no binding (tested: 350 nM)
B2: KC034 (Fc fusion)
VHH-hinge-CH2-CH3-linker-VHH-linker-VHH polypeptide chain: QVQLVESGGGSVQAGGSLRLSCAASGSTDSIEYMTWFRQAPGKAREGVAALYTHTGNTYYTDSVKGRFTISQDKAKNMAYLRMDSVKSEDTAIYTCGATRKYVPVRFALDQSSYDYWGQGTQVTVSSEPKSCDKTHTCPPCPAPELLGGPSVFLFPPKPKDTLMISRTPEVTCVVVDVSHEDPEVKFNWYVDGVEVHNAKTKPREEQYNSTYRVVSVLTVLHQDWLNGKEYKCKVSNKALPAPIEKTISKAKGQPREPQVYTLPPSREQMTKNQVSLTCLVKGFYPSDIAVEWESNGQPENNYKTTPPVLNSDGSFFLYSKLTVDKSRWQQGNVFSCSVMHEALHNHYTQESLSLSPGKAPAPAPAPAPKAQVQLVESGGGSVQAGGSLRLSCAASGSTDSIEYMTWFRQAPGKAREGVAALYTHTGNTYYTDSVKGRFTISQDKAKNMAYLRMDSVKSEDTAIYTCGATRKYVPVRFALDQSSYDYWGQGTQVTVSSGGGGSGGGGSGGGGSEVQLVESGGGLVQPGGSLRLSCAASGDIYKSFDMGWYRQAPGKQRDLVAVIGSRGNNRGRTNYADSVKGRFTISRDGTGNTVYLLMNKLRPEDTAIYYCNTAPLVAGRPWGRGTLVTVSS
notes: also called (HEWL)
